In the DeepSol protein solubility set:

Experiment: soluble on expression in E. coli; label from the status in PepcDB or PDB records

Q: Which “soluble on expression in E. coli” value does the source give for “SHMRVLVCGGAGYIGSHFVRALLRDTNHSVVIVDSLVGTHGKSDHVETRENVARKLQQSDGPKPPWADRYAALEVGDVRNEDFLNGVFTRHGPIDAVVHMCAFLAVGESVRDPLKYYDNNVVGILRLLQAMLLHKCDKIIFSSSAAIFGNPTMGSVSTNAEPIDINAKKSPESPYGESKLIAERMIRDCAEAYGIKGICLRYFNACGAHEDGDIGEHYQGSTHLIPIILGRVMSDIAPDQRLTIHEDASTDKRMPIFGTDYPTPDGTCVRDYVHVCDLASAHILALDYVEKLGPNDKSKYFSVFNLGTSRGYSVREVIEVARKTTGHPIPVRECGRREGDPAYLVAASDKAREVLGWKPKYDTLEAIMETSWKFQRTHPNGYASQENGTPGGRTTKL” here?
A: Its value is “soluble”.

Q: With “SNAMDMVTVTAKTVEEAVTKALIELQTTSDKLTYEIVEKGSAGFLGIGSKPAIIRAKRKETLQDKAIEFLEQVFDAMNMAVDISVEYNETEKEMNVNLKGDDMGILIGKRGQTLDSLQYLVSLVVNKSSSDYIRVKLDTENYRERRKETLETLAKNIAYKVKRTKRSVSLEPMNPYERRIIHAALQNDKYVVTRSDGEEPFRHVIISLKRENRRDRNDRSDRNEK” as the sequence, how does the “soluble on expression in E. coli” value read?
A: The value was “soluble”.

Q: For “AWVDQTPRTATKETGESLTINCVLRDASFELKDTGWYRTKLGSTNEQSISIGGRYVETVNKGSKSFSLRISDLRVEDSGTYKCQAFYSLLLRDYNYSLLFRGEKGAGTALTVKAAA”, which “soluble on expression in E. coli” value is on record?
A: Its value is “soluble”.

Q: Which “soluble on expression in E. coli” value does the source give for “MSGVRFPSGSLKDVRFFLHLFFSSKYGIIYVRYLDEEGTIMKQIIISVGREFGSGGHIVAQKLAEHYDIPIFNKELLEEMARKEGYSEKALEKYDEKPVNFGFMPLPYAGGNIPIEQEIAMKQFEFIKNKADAGESFVIVGRCADEILAYNPNLVSVFITGDRESKIARVMDREGLDRKQAINKMKRMDKIRKTYHNFYCRNKWGDSRGYDICINTGKTDFDTAKNMVVECVDKLKERSE” here?
A: Its value is “not soluble”.

Q: With “MVFNFLIVSDEVEDFRREIAIDSEATFLDLQNAILDSVGYSHSELTSFFLCDEDWHKGQEITLMEMDTASDEDSYVMENTRLEEFIEDEHQRLVFEFDLMTERYFFIEVMDIVPGKSLSEPKLLTSEGLPPQQSSLDDLMDPTAIPTKQARGLDLEEDFFGDSEYNEDEIDREGFEGFDEITSDLSDNY” as the sequence, how does the “soluble on expression in E. coli” value read?
A: The value was “not soluble”.

Q: For “MRHPLISLLLLIAFYSTSSEAFVPKCNSFYVRWPRVRLNFKAVAEARLSLKGCQSACSLGEDPVSPGKQLECAAVNHQASPDGFSHLCAVFQPHQLQNVDGYVEADDRFTFYWKYCLPSTRKCSGEYAFTYLSDRYMDQKSVIKWTTKANLEECLSDCLDEKSFECRSISFNRTDGGCHMSKDSQISRPEAIRLNNNPNYRIDYYENNCYNLSESFTFKHECRDNGISVSVKSRLPYTGAIYGLYDFFTCRTEPKEATEFDHFFPYQTVSKNCSDSIKYKGNEMVLEVVLSTDGIEPLYFITPEDLTYQAKCPISGVKAKDPANTKSSAHLDNRNKAMEASAHALFELLSKTGDDEALQNTFPLPLTTTTEVISDVPTTTVQTSTTVPTTPSKTTATTTTTPKPTTTETATTSSSTTTVTTQKPTTVTSTTTLPSTTASTTTKTTTSTPTSPQTTTTHVGAPASSVASVAHDGSTLAGKPKVPVIFDIFHNGQPVEAVVVGTKISLSFRPHYPIPPEYVDVRGCQVEPIDPKYEWEHEPLFIIRDGCPADGVGLVCPPTHSEFGAKVSVEAFRYQTTGQVQYSCLVRICPFAPCPKNTCDDVEGCDSSYMHRYRRELSLEDIKKALEANPELASQFGISPSAFARNPSKSKNFTSVVEEQQRIALGGDYLVRRRLIVVNSEDQLRYYVRTGNI”, which “soluble on expression in E. coli” value is on record?
A: Its value is “not soluble”.

Q: For “MGSDKIHHHHHHMSDTLIELRNIGKRFGGVRALDGVSLAIRPGEIHCLAGENGSGKSTVIKVMSGIYTPEEGEILIDGRPVGRLDPIRAVQHGVQVIYQDFSLFGNLTVAENLALNTYVLEGRRRMDWRRARTMAVEVLARLGVDIDPDAEVGTLPTSGRQVVAIARAILAKARLIIMDEPTTALTRHEVDALFAIVRDLQAQGIAVLFVSHKMREMLEISERLTVFRNGRKVAEGPMSDFDEAAITHAMTGLSLTDDPYRPTLPPGPPLLEVRKLSVPGSVQDIDLSLRPGEIVGISGLIGSGRTELARALFGMEPAMTGTLRLEGREIHPRSVQEAIALGIAYVPEDRLTEGLFLPQSIERNLVVSILERLRRGPFLDTRAVREKTLGMFRDMQIAAPSPETAVGNLSGGNAQRVMLGRWLLTGARVLILNGPTVGVDVGSKATIHRIIRDLAQREGLGVLMISDDVPELVTNCNRIHVMHRGRFVADLDGSGMTEDRINDALKTLN”, which “soluble on expression in E. coli” value is on record?
A: The value was “not soluble”.

Q: Which “soluble on expression in E. coli” value does the source give for “MPIRFLHTADLHLDSPLRTFGDLARERRRDFLKTFDRIVNLAIKREVDCILIAGDLFDSTSVGAETVGRVQDAFSRLAGRGVQVVLIPGTHDNIISAESVYSRYQFTGVHILREPAVDEPLRLDIRGEAVFFYGFAYRSDRSREALESMRRRSGDGIHVGLLHGSLKGNPEWEMRKKDIPFSVADLVALDLDYIALGHYHDAACLEEGGRVIACYPGSPEGKKFGENGPRYALIVEVAPGNASVERVEVQTRIIREFNVDASLFAEPAALEAELARLGTSDTVGRIRLCGTVEEPLDTANLSGRVKGNFAWLELVDETDLYNSGHVKRMEREDSIRGLFIRKIHERYDAAGSDAERELCRDALRLVMGRFSRGGGN” here?
A: The value was “not soluble”.

Q: With “SINNGTFDEPIVNDQANNPDEWFIWQAGDYGISGARVSDYGVRDGYAYITIADPGTDTWHIQFNQWIGLYRGKTYTISFKAKADTPRPINVKILQNHDPWTNYFAQTVNLTADWQTFTFTYTHPDDADEVVQISFELGEGTATTIYFDDVTVSPQ” as the sequence, how does the “soluble on expression in E. coli” value read?
A: The value was “soluble”.

Q: Which “soluble on expression in E. coli” value does the source give for “NNSQFFMGIPRLKFPADAPSRSTLKLEEAFHVFIPRDEWDERLAPGMWGVDLGACPGGWTYQLVKRSMFVHCVDNGMMADSLMETGQIKHHMVDGFKFEPDRKNVTWIVCDMVEKPARVAHLMGQWLLKGWAKEAIFNLKLPMKGRYDEVLQDLENLKMFLIENKVKFKLQAKHLYHDREEITIHIQCLSNISPH” here?
A: The value was “not soluble”.

Q: Which “soluble on expression in E. coli” value does the source give for “MGCFFSKRRKADKESRPENEEERPKQYSWDQREKVDPKDYMFSGLKDETVGRLPGTVAGQQFLIQDCENCNIYIFDHSATVTIDDCTNCIIFLGPVKGSVFFRNCRDCKCTLACQQFRVRDCRKLEVFLCCATQPIIESSSNIKFGCFQWYYPELAFQFKDAGLSIFDNTWSNIHDFTPVSGELNWSLLPEDAVVQDYVPIPTTEELKAVRVSTEANRSIVPISRGQRQKSSDESCLVVLFAGDYTIANARKLIDEMVGKGFFLVQTKEVSMKAEDAQRVFREKAPDFLPLLNKGPVIALEFNGDGAVEVCQLIVNEIFNGTKMFVSESKETASGDVDSFYNFADIQMGILEHHHHHH” here?
A: Its value is “soluble”.

Q: Which “soluble on expression in E. coli” value does the source give for “MNYELLTTENAPVKMWTKGVPVEADARQQLINTAKMPFIFKHIAVMPDVHLGKGSTIGSVIPTKGAIIPAAVGVDIGCGMNALRTALTAADLPENLAELRQAIETAVPHGRTTGRCKRDKGAWENPPFNVDAKWAELEAGYQWLTQKYPRFLNTNNYKHLGTLGTGNHFIEICLDESEQVWIMLHSGSRGIGNAIGTYFIDLAQKEMQDQLETLPSRDLAYFMEGTEYFDDYLRAVAWAQLFASLNRDAMMENVVTALQSITQKTVRQPQTLAMEEINCHHNYVQKEQLFGEEIYVTRKGAVSARAGQYGIIPGSMGAKSFIVRGLGNEESFCSCSHGAGRVMSRTKAKKLFSVEDQIRATAHVECRKDAEVIDEIPMAYKDIDAVMAAQSDLVEVIYTLRQVVCVKGLEHHHHHH” here?
A: Its value is “soluble”.

Q: With “SSNAKADQASSDAQTANAKADQASNDANAARSDAQAAKDDAARANQRADNAA” as the sequence, how does the “soluble on expression in E. coli” value read?
A: The value was “soluble”.

Q: With “AAAAAAMIVQRVVLNSRPGKNGNPVAENFRMEEVYLPDNINEGQVQVRTLYLSVDPYMRCRMNEDTGTDYITPWQLSQVVDGGGIGIIEESKHTNLTKGDFVTSFYWPWQTKVILDGNSLEKVDPQLVDGHLSYFLGAIGMPGLTSLIGIQEKGHITAGSNKTMVVSGAAGACGSVAGQIGHFLGCSRVVGICGTHEKCILLTSELGFDAAINYKKDNVAEQLRESCPAGVDVYFDNVGGNISDTVISQMNENSHIILCGQISQYNKDVPYPPPLSPAIEAIQKERNITRERFLVLNYKDKFEPGILQLSQWFKEGKLKIKETVINGLENMGAAFQSMMTGGNIGKQIVCISEEISL” as the sequence, how does the “soluble on expression in E. coli” value read?
A: Its value is “soluble”.

Q: With “MSLEPLAETYQALVLAVRDYVTKNGFHGAVLGLSGGIDSALTLAIAADAIGADKVQAVMMPFRYTAQMSVEDAKEQAERMGVEFNIISIEPMFEGFMAQLAPLFEGTARDTTEENLQARCRGVLLMALSNKRRCIVLTTGNKSEMAVGYATLYGDMAGGFDVLKDVPKTLVFKLCEYRNSVDYVIPQRVIDRPPSAELAPDQVDQDSLPPYDILDAILKRYVEEDASVADMVAEGFEEAVVRKVIRLVDLNEYKRRQAAVGPRITARNEGHHHHHH” as the sequence, how does the “soluble on expression in E. coli” value read?
A: Its value is “not soluble”.

Q: For “MAQLENQILETLKPLIDANTGKSYVAAKNVKNLKCGDAEISLDVVLAYPAKSQFDAVRQQFEAALAPLAEGRAIKIAVSAQIVSHSAQRGVPLLPGVKNVIAVASGKGGVGKSTTAANLALALADEGARVGLLDADIYGPSQPLMMGLQGQRPETADGKLTPLSNHGIQTMSIGYLVDADQAMVWRGPMVSQALQQLLNDTRWDDLDYLVIDMPPGTGDVQLTLSQKVPVTGALIVTTPQDIALLDARKGVTMFQKVGVPILGLVENMAIHVCSNCGHAEHIFGEGGAVKMAQDFGVELLGSLPLDLAIRQAVDEGRPSVAADPSGKPAELYRAIARRVAVKVGEKAQDFSGKFPKIVIQNNLEHHHHHH”, which “soluble on expression in E. coli” value is on record?
A: Its value is “not soluble”.

Q: Which “soluble on expression in E. coli” value does the source give for “MGSDKIHHHHHHMLSVAIPKAKPLLKQEKVATTAQKNQKEVIHYTAIGDSLTEGIGDLTNSGGFVPIVADDLKEHYNLNGVQTDNFGKNGDRSDQILKRIKEKPEIQKGLASADVITLTVGGNDLMKVISSNIFDLKVSSFNRPQKAYQRRVRRLLEEIREYNEKAPIYVLGIYNPFYLNFSEITEMQEIVDNWNQATEEMVQEQKRAYFIPINDLLYKGRGDEVGVTGGDSETTGSSASKEDLNNLLYEEDRFHPNNLGYQIMAGAVRDEMVKTEKEWITKSEGSE” here?
A: Its value is “not soluble”.

Q: With “GPGSMKTIALLSGGKDSILAMLMAHRYGHEPVVIANMAPVLESDGALRGAAENGTHGHDIDSYMYQTVGFEAVDSIAACLGLPLRRGRVRRGLAKDQSLLYSEQPPEEDEVESLYSLIRTVKEEFPEVQGLTSGAILSNYQRNRVELICDRLGLESLAYLWMRQPDEILDMADALHVQAILVKTASIGLMPRCLIGKTLEEARPTLEKMAELYHSHLAGEGGEYETIVLNCPLFHAEHLTVTALEVVMQDDNDISPSGHGLLTVARVPKSVEQQAKEAEVLARVRAGAVTFPSDTMPLLRSCAVYPLALSATASARGPGETIDLPLPATIRSALFLGSGTAAARDGIAHHTYASPLEAGASAAEALNACLTVLQTWAAERSLTPFYYHFSLPEPSWEVSCRAAYAGKVSHVCPPGLLVTVRDSRSRSAAAVEAEVLAAPTAAIQQHVLHAQSRSCWALGEPGPHSQARRVGLATGTSRLFVSATPGRVPATREVATASDLPAVCQQCITALAAAQHGEETSAALTDIAAQFVVAMSNCERYLTLFGCSFGDVDRAAVVATDDVPVSLLPALWQWTTQNTGALPFERVCQVVVVGALSGTEKIRVSMECVEVRGGGG” as the sequence, how does the “soluble on expression in E. coli” value read?
A: The value was “not soluble”.
